Where no end group is shown, it is not given here. [ ]: non-standard residue; d: D form. The star is where a group is joined. Stearoyl = CCCCCCCCCCCCCCCCCC(=O)*; R8 = C=CCCCCCC[C@@](C)(N)C(=O)O; Orn = NCCC[C@H](N)C(=O)O
Tests used:
HeLa pLuc705 cells = experiment: Splicing correction luciferase assay (Kole's assay); details: hPep3 dissolved in the mixture of dimethyl sulfoxide; 100 nM SCO-705, 500 nM peptide, 24 h; FIG. 5
[1] = test system: human primary keratinocytes; experiment: Transfection with EGFP-coding mRNA/CPP complexes; assay type: cell-based; details: CPP solutions in mixture of organic solvents; 200 ng mRNA, 520 nM CPP, 20 h; FIG. 3
Procedure: The complexes of 200 ng of mRNA with 520 nM CPP were added into culture medium above cells per well of 24-well plate for 20 h. For the delivery and expression of EGFP, mRNA complexes were assembled with NF71 (dissolved at 1 mM concentration in ethanol/DMSO/trimethylene carbonate 78/20/2) or PF14 (PF14o—dissolved at 1 mM concentration in ethanol/DMSO, or in water—PF14w).
The CPP nanoparticles with mRNA are formed in a similar manner with pDNA. mRNA at concentration 10 μg/ml is complexed with 10 μM PF14 CPP in Milli-Qwater. If required, Ca or Mg ions are incorporated in CPP-mRNA nanoparticles as described above. Unlike other particle solutions described above, CPP-mRNA 10× solutions are directly added into growth medium where cells have been incubated. The preferred N/P ratio (“charge ratio”) of CPP to mRNA is 2. Depending on the charge of used CPP, type of cells and experiment, N/P ratio can be varied in the range 1.5 to 4. For delivery of mRNA into human primary cells, preferentially Mg ions are incorporated in CPP nanoparticles.

[2] = Transmission electron microscopy (TEM) of size and shape of CPP particles; assay type: physicochemical
Procedure: (§1) The diameter and zeta potential of CPP nanoparticles may be measured using dynamic light scattering (DLS) or nanoparticle tracking analysis system (NTA) (1), (4) (using 0.01 mM peptide). The morphology of NP is analysed by transmission electron microscopy (TEM) (11), scanning electron microscopy (SEM) or atomic force microscopy (AFM) using 0.1 or 0.01 mM peptide solution.
Analysis of the size and shape of CPP nanoparticles and their complexes with cargo nucleic acids by transmission electron microscopy (TEM) confirmed data from DLS analysis. Depending on the solvent used for preparation of 1 mM peptide solutions, the particles of CPP were largely different.

[3] = Dynamic light scattering (DLS) size and polydispersity of CPP particles after dilution in water; assay type: physicochemical; details: PF14 in isopropanol/DMSO/trimethylene carbonate (90/9/1), further 10-fold dilution
Procedure: as §1
The physical characteristics (diameter and zeta-potential) of the peptide micelles/aggregates/nanoparticles were analysed by dynamic light scattering (DLS) using a ZetaView (Particle Metrix, Germany) or ZetasizerNano ZS apparatus (Malvern Instruments, UK) at 10 μM concentration in water.
DLS analysis of the size of CPP particles forming after 100-fold dilution of 1 mM peptide solution in Milli-Q water or organic solvents (ambient temperature) is provided in Table 1.
The optimal size of nanoparticles to be used for drug delivery in vivo is in range of 100 nm (between 10 and 200 nm), and the lack of large aggregates is highly essential. In order to analyse the size of CPP clusters that form in water, DLS traces were measured by Malvern Zetasizer Nano ZS. Four consecutive measurements were performed with each sample for the calculation of the size and polydispersity of the forming CPP particles.

Row | Substance | efficiency of nanoparticles with SCO cargo compared with water-dissolved hPep3 (HeLa pLuc705 cells) | transfection of EGFP mRNA and expression of EGFP [1] | aggregates present in specimen ([2]; PF14 in isopropanol/DMSO/trimethylene carbonate (90/9/1) at 1 mM, diluted in water to 0.1 mM, TEM) | diameter of spherical nanoparticles ([2]; PF14 in isopropanol/DMSO/trimethylene carbonate (90/9/1) at 1 mM, quick dilution in water to 0.1 mM, TEM) | larger PF14 particles observed in TEM images ([2]; PF14 in isopropanol/DMSO/trimethylene carbonate (90/9/1), 0.1 mM in water) | average diameter of uniform NP [3] [nm]
1 | hPep3 (L[R8][dK]LAKA[R8]AKLLKA[R8]AKAL; staple (positions not given here); also: three R8 olefin residues, staple pairing not given here) | same efficiency | – | – | – | – | –
2 | PepFect 14 (Stearoyl-AGYLLGKLL[Orn][Orn]LAAAAL[Orn][Orn]LL-NH2) [PF14, Stearyl (C18)-…OOLAAAALOOLL, C-terminal amide] | – | enable transfection | No aggregates | 40-60 nm | 100-150 nm | ~100
3 | NickFect 71 (Stearoyl-HHYHHGXILLKALKALAKAIL-NH2; not fully specified (residue 7); printed as HHYHHGObILLKALKALAKAIL; also: Gly6 joined to the Orn7 side-chain delta-amino instead of its alpha-amino) [NF71] | – | enable transfection | – | – | – | –
